Measured values from patent US20250145722A1 (TRUEBINDING, published 2025).
Substitutions are numbered along the chain they refer to. Names and notes keep the numbering of the source.

B1: recombinant human TGF-beta sRII/Fc (R&D Systems, 341-BR) (Fc fusion, UniProt P37173 24-159, looked up, not shown: a dimerising Fc or GST)
chain: IPPHVQKSVNNDMIVTDNNGAVKFPQLCKFCDVRFSTCDNQKSCMSNCSITSICEKPQEVCVAVWRKNDENITLETVCHDPKLPYHDFILEDAASPKCIMKEKKKPGETFFMCSCSSDECNDNIIFSEEYNTSNPD
notes: also called TGFβ R2; TGFBR2
B2: 4A11.2B5 (antibody, human IgG4 S228P, kappa, V domains shown)
VH: QVQLQQSGPELVKPGASVKISCKASGYSFTNYYIHWVKQRPGQGLEWIGWIYPGSGNTNYNEKFKGKATLTADTSSSTTNMQLSSLTSEDSAVYYCSTAPGGFDVWGSGTTVTVSS
VL: DIVMTQAAFSNPVTLGTSASISCRSSKSLLHSDGITYLYWYLQRPGQSPQLLIYRMSNLASGVPDRFSGSGSGTDFTLRISRVEAEDVGVYYCAQMLEFPLTFGAGTKLELKR
B3: recombinant human TGF-beta RI/ALK-5 Fc chimera protein (R&D Systems, 3025-BR) (Fc fusion, UniProt P36897 24-125, looked up, not shown: a dimerising Fc or GST)
chain: AAALLPGATALQCFCHLCTKDNFTCVTDGLCFVSVTETTDKVIHNSMCIAEIDLIPRDRPFVCAPSSKTGSVTTTYCCNQDHCNKIELPTTVKSSPGLGPVE
notes: also called TGFβ RI; TGFBR1
B4: F846TC.14A2 (antibody, human IgG4 S228P, kappa, V domains shown)
VH: QIQLVQSGPELKKPGETVKISCKASGYTFTNYGMNWVKQAPGKGLKWMGWINTYTGEPTYAGDLKGRFAFSLETSASTAYLQINNLKNEDTATYFCVRYTMDYWGQGTSVTVSS
VL: QAVVTQESALTTSPGETVTLTCRSSTGAVTTSNYANWVQEKPDHLFTGLIGGINNRVPGVPARFSGSLIGDKAALTITGAQTEDEAIYFCALWYSNHWVFGGGTKLTVLR
notes: also called 846T.14A2; 846.14A2
B5: F847C.4B10 (antibody, human IgG4 S228P, kappa, V domains shown)
VH: EVQLVETGGGLVKPGGSLKLSCAASGFTFSSYAMSWVRQTPEKRLEWVASISSGGSTYYPDSVKGRFTISRDNARNILYLQMSSLRSEDTAMYYCTRFTTVVEMDYWGQGTSVTVSS
VL: B4 VL with I53T, V57A, W98L
B6: F847C.26F5 (antibody, human IgG4 S228P, kappa)
heavy: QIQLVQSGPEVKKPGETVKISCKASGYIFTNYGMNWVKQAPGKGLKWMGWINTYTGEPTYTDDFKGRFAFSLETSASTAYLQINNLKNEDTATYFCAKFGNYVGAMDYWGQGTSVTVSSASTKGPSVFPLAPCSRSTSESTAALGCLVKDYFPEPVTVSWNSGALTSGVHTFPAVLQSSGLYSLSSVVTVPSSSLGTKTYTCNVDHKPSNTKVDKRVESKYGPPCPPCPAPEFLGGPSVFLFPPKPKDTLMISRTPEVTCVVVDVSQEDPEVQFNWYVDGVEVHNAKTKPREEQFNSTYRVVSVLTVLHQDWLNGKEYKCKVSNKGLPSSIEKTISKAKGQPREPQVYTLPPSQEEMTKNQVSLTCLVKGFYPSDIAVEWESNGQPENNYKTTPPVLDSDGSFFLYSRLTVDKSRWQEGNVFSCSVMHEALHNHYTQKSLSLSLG
light: EIKMNQSPSSLSASLGDTITITCHASQNINVWLSWYQQKPGNIPKLLIYKASNLHTGVPSRFSGSGSGTGFTLTISSLQPEDIATYYCQQGQSYPYTFGGGTKLELKRTVAAPSVFIFPPSDEQLKSGTASVVCLLNNFYPREAKVQWKVDNALQSGNSQESVTEQDSKDSTYSLSSTLTLSKADYEKHKVYACEVTHQGLSSPVTKSFNRGEC
notes: also called 847.26F5
B7: F846C.1H5 (antibody, human IgG4 S228P, kappa, V domains shown)
VH: EVQLLESGGGLVKPGGSLKLSCAASGFTFSSYAMSWVRQTPEKRLEWVASISSGGDTYYPDSVKGRFTISRDNARNILYLQMSSLRSEDTAMYYCASYGNSLFDYWGQGTTLTVSS
VL: DVVMTQTPLSLPVSLGDQASISCRSSQSLVHNSGNTYLHWYLQRPGQSPNLLIYKVSNRFSGVPDRFSGSGSGTDFTLKISRVAAEDLGVYFCSQSTHVPPTFGGGTKLEIKR
B8: F846TC.7F10 (antibody, human IgG4 S228P, kappa, V domains shown)
VH: EVQLVESGGDLVKPGGSLKLSCAASGFTFSNYGLSWIRQTPDKRLEWVATISSGGSYTYYPDSVKGRFTISRDSAKNTLYLQMSSLKSEDTAMYYCARHAHYYGVSPYYFDYWGQGTCLTVSS
VL: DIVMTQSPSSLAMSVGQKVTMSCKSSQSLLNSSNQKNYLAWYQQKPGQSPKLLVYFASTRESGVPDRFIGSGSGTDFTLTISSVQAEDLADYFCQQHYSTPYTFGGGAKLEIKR
notes: also called 846T.7F10
B9: F846TC.14E4 (antibody, human IgG4 S228P, kappa, V domains shown)
VH: QVTLKESGPGILQPSQTLSLTCSFSGFSLSTSGMGVGWIRQPSGKGLEWLAHIWWDDDKYYNTALKSGLTISKDASKNQVFLKIASMDTADTATYYCARNLYDGSYGYYAMDYWGQGTSVTVSS
VL: DIVMTQAAFSNPVTLGTSASISCRSSKSLLHTNGITFLYWYLQKPGQSPQPLIYQMSNLASGVPDRFSSSGSGTDFTLRISRVEAEDVGVYYCAQNLELPWTFGGGTKLEINR
notes: also called 846T.14E4
B10: F849C.8H3 (antibody, human IgG4 S228P, kappa, V domains shown)
VH: QVTLKESGPGILQPSQTLSLTCSFSGFSLSTFGMGVGWIRQPSGKGLEWLAHIWWDDDKHYNPALKSRLTISKDTSKNQVFLRIANVDTADNATYYCARIDYGDYVGFAYWGQGTLVTVSA
VL: B9 VL with V3G, T5R, H31Y, T32S, F37Y, Y41F, P51L, E86D, N112K
B11: F846C.1F5 (antibody, human IgG4 S228P, kappa, V domains shown)
VH: QIQLVQSGPELKKPGETVKISCKASGYTFTNYGMNWVKQAPGKGLKWMGWINTYTGEPSYADDFKGRFAFSLETSASTAYLQINNLKNEDMATYFCARWGGYDGDYYAMDYWGQGTSVTVSS
VL: NIMMTQSPSSLAVSAGEKVTMSCKSSQSVLYSSNQKNYLAWYQQKPGQSPKLLIYWASTRESGVPDRFTGSGSGTDFTLTISSVQPEDLAVYYCHQYLSSLTFGAGTKLELKR
notes: also called 846.1F5
B12: F846C.2H3 (antibody, human IgG4 S228P, kappa, V domains shown)
VH: B11 VH
VL: B11 VL
notes: also called 846.2H3
B13: F846TC.16B5 (antibody, human IgG4 S228P, kappa, V domains shown)
VH: B11 VH with S59A
VL: B11 VL with P86A
notes: also called 846T.16B5
B14: F846C.1B2 (antibody, human IgG4 S228P, kappa, V domains shown)
VH: B11 VH with D103A, Y111F
VL: B11 VL with M3W, M4L, K18M, S22T, T78S, P86A
notes: also called 846.1B2
B15: F846C.1H12 (antibody, human IgG4 S228P, kappa, V domains shown)
VH: B11 VH with Y32F, M91I, D103A
VL: B11 VL with E17Q, N34S, T69S
notes: also called 846.1H12
B16: 19B5.2E6 (antibody, mouse IgG2a, V domains shown)
VH: QIQLVQSGPELKKPGETVKISCKASGYTFTTYAMSWVKQAPGKGLKWMGWINTYSGVPTYADDLKGRFAFSLETSASTAYLQINNLKNEDTATYFCARGPYAMDYWGQGTSVTVSS
VL: DIQMTQTTSSLSASLGDRVTISCSASQGINNYLNWYQQKPDGTVKLLIYYASSLHSGVPSRFSGSGSGTDYSLTISNLEPEDIATYYCQQYSQVPYTFGSGTKLEIKR
B17: 23H9.2E4 (antibody, V domains shown)
VH: B16 VH
VL: DIQMTQTTSSLSASLGDRVTISCSASQGINNYLNWYQQKPDGTVKLLIYYASSLHSGVPSRFSGSGSGTDYSLTISNLEPEDIATYYCQQYSQVPYTFGSGTKLEIK
B18: F849C.8D10 (antibody, human IgG4 S228P, kappa, V domains shown)
VH: QVQLQQTGAELVKPGASVKLSCKASGYTFTSYWINWVKQRPGQGLEWIGNIYPGSSSIYYSEKFKSKATLTVDTSSSTAYMQLSSLTSDDSAVYYCARWGYWGQGTTLTVSS
VL: DVLMTQTPLSLPVSLGDQASISCRSSQDIVHSSGNTYLEWYLQKPGQSLKLLIYKVSNRFSGVPDRFSASGSGTDFTLKISRVEAEDLGVYYCFQGSHVPPTFGSGTKLEIKR
notes: also called 849.8D10

Assays:
[1] = biological target: T1, human Galectin-3 (Gal3), full-length recombinant (human, UniProt P17931 2-250); experiment: SPR (Carterra LSA, HC30M chip with Protein A/G, receptor-Fc captured, Gal3 0-128 nM as analyte, 25 °C)
T1 construct: treated here as one molecule; also called hGAL3; hGal3
Description: Briefly, kinetics experiment was performed on Caterra LSA at 25° C. A HC30M chip was immobilized with recombinant Protein A/G.
The complex was allowed to associate and dissociate for 300 s and 240 s, respectively. Eight cycles of kinetics were done sequentially for the dilution series.

[2] = biological target: T1, human Galectin-3 (Gal3), full-length …; experiment: cell-based or functional assay
[3] = biological target: T1, human Galectin-3 (Gal3), full-length …; experiment: blocking ELISA, Gal3 coated, biotin-Abeta42 oligomer
[4] = biological target: T1, human Galectin-3 (Gal3), full-length …; experiment: blocking ELISA, Gal3 coated, biotin-APP695
[5] = biological target: T1, human Galectin-3 (Gal3), full-length …; experiment: not stated. Exponent is printed without a minus sign; value taken as a negative power of ten because the column is a KD in M
[6] = biological target: T1, human Galectin-3 (Gal3), full-length …; experiment: blocking ELISA, Gal3 coated, biotin-Abeta42 peptide
[7] = biological target: T1, human Galectin-3 (Gal3), full-length …; experiment: blocking ELISA, Gal3 coated, biotin-TLR4
[8] = biological target: T1, human Galectin-3 (Gal3), full-length …; experiment: blocking ELISA, Gal3 coated, TREM2-His
Description: The plate was incubated for an hour at room temperature with gentle rocking. Thereafter, the plate was washed three times with PBST. Anti-6× His tag antibody-HRP (Abcam, ab1269) was then added to the wells at 1:3000 dilution in 2% BSA in PBST. The plate was incubated at room temperature for an hour with gentle rocking and then washed three times with PBST.

[9] = biological target: T1, human Galectin-3 (Gal3), full-length …; experiment: blocking ELISA, Gal3 coated, biotin-Tau aggregates
Description: The plate was incubated for an hour at room temperature with gentle rocking. Thereafter, the plate was washed three times with PBST. […] The plate was incubated at room temperature for an hour with gentle rocking and then washed three times with PBST.

T1 sequence (P17931 2-250 limits assumed): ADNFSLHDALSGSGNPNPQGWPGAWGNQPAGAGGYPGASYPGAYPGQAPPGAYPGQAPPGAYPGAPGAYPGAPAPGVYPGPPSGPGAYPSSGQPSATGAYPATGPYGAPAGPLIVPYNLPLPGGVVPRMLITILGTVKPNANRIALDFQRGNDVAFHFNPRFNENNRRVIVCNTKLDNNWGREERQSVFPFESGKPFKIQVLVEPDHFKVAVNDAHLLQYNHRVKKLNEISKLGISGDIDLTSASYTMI

Row | Binder | % blocking of Gal3-Abeta42 oligomer binding [3] [%] | % blocking of Gal3-APP695 binding [4] [%] | Kd [5] [nM] | % blocking of Gal3-Abeta42 peptide binding [6] [%] | % blocking of Gal3-TLR4 binding [7] [%] | % blocking of Gal3-TREM2 binding [8] [%] | further results
1 | B1 |  |  |  |  |  |  | Kd [1]: 725 nM; koff [1]: 0.0837 s⁻¹; kon [1]: 116000 M⁻¹ s⁻¹
2 | B2 |  |  |  |  |  |  | decrease in TGFβ induction of ColA1 mRNA in LX2 cells (qRT-PCR) [2]: 58%
3 | B3 |  |  |  |  |  |  | Kd [1]: 314 nM; koff [1]: 0.0351 s⁻¹; kon [1]: 112000 M⁻¹ s⁻¹
4 | B4 | > 90 | > 90 | 3.26 | > 90 | > 90 |  | 
5 | B5 | < 26 | > 83 | 21.5 |  |  |  | 
6 | B6 |  | 87 | 20.9 |  |  | < 47 | 
7 | B7 |  |  | 3.41 |  |  |  | 
8 | B8 |  |  | 1.4 |  |  |  | 
9 | B9 | > 90 | > 90 | 0.556 | > 90 | > 90 | > 90 | 
10 | B10 |  | > 90 |  |  |  |  | 
11 | B11 | > 90 | > 90 | 1.63 | > 90 | > 90 | > 90 | % blocking of Gal3-Tau aggregates binding [9]: > 90%
12 | B12 |  | > 90 | 1.72 | > 90 | > 90 | > 90 | 
13 | B13 |  | > 90 | 0.927 | > 90 | > 90 | > 90 | 
14 | B14 |  | > 90 | 5.74 | > 90 | > 90 | > 90 | % blocking of Gal3-Tau aggregates binding [9]: > 90%
15 | B15 |  | > 90 | 0.622 |  |  |  | 
16 | B16 | > 90 | > 90 |  | > 90 | > 90 | > 90 | decrease in TGFβ induction of ColA1 mRNA in LX2 cells (qRT-PCR) [2]: 85%
17 | B17 | < 26 |  |  | < 46 | > 90 | > 90 | 
18 | B18 |  | > 90 | 3.75 | > 90 | > 90 | > 90 | 
